Values of other authors as cited in PMC4209448 (Scientific Reports, 2014).

Conditions: C57BL/6 mice

For “Aβ(1–40): amyloid-β(1–40) peptide whose CSF-to-blood efflux half-time is quoted from the literature”, the “Half-time of efflux from the CSF to blood” value is given as 34.63 ± 3.6 min.
